Measurements as given in article PMC2756588.

Tests used:
Experiment in all cases: SPOT array
Abp1, P15891 = target: T1, Abp1, P15891; details: median of control spots 935
T1 sequence (P15891 535-592, looked up): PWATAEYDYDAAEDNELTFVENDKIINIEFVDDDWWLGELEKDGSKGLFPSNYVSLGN

Bzz1-2, P38822 = target: T2, Bzz1-2, P38822; details: median of control spots 4538
T2 sequence (P38822 568-633, looked up): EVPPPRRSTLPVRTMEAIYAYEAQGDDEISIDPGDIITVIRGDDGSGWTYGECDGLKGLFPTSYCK

Cyk3, Q07533 = target: T3, Cyk3, Q07533; details: median of control spots 1451
T3 sequence (Q07533 1-83, looked up): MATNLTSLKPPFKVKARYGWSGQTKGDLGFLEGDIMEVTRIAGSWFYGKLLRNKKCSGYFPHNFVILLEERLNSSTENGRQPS

Boi1, P38041 = target: T4, Boi1, P38041; details: median of control spots 1162
T4 sequence (P38041 1-86, looked up): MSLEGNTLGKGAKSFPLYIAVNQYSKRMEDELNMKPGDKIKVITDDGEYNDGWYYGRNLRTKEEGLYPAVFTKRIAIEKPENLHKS

Bud14, P27637 = target: T5, Bud14, P27637; details: median of control spots 956
T5 sequence (P27637 247-328, looked up): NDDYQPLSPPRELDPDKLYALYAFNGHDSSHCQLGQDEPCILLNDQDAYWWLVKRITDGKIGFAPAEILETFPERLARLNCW

Nbp2, Q12163 = target: T6, Nbp2, Q12163; details: median of control spots 357
T6 sequence (Q12163 103-180, looked up): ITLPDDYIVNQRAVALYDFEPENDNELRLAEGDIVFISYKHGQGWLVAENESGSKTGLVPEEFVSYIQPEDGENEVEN

Myo5, Q04439 = target: T7, Myo5, Q04439; details: median of control spots 471
T7 sequence (Q04439 1072-1160, looked up): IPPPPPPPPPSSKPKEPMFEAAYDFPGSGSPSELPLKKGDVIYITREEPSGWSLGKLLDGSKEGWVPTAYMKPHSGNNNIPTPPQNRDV

Lsb1, P53281 = target: T8, Lsb1, P53281; details: median of control spots 388
T8 sequence (P53281 45-122, looked up): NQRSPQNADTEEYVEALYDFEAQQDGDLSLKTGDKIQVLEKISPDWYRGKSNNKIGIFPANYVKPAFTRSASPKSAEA

Rvs167, P39743 = details: median of control spots 2707
Rvs167, P39743, sequence (P39743 419-482): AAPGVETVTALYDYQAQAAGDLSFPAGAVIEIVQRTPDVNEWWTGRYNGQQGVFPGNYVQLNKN

Lsb3, P43603 = target: T9, Lsb3, P43603; details: median of control spots 406
T9 sequence (P43603 385-451, looked up): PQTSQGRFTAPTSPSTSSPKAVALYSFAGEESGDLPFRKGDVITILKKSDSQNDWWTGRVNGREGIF

Sho1, P40073 = details: median of control spots 1148
Sho1, P40073, sequence (P40073 287-367): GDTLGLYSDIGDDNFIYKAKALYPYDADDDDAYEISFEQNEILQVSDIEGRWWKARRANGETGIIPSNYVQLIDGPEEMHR

GST = details: median of control spots 978
Bem1-1, P29366 = details: median of control spots 4282
Bem1-1, P29366, sequence (P29366 55-141): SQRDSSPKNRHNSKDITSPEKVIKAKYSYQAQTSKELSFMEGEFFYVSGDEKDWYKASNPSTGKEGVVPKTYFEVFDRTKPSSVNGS

Fus1, P11710 = target: T10, Fus1, P11710; details: median of control spots 1200
T10 sequence (P11710 432-512, looked up): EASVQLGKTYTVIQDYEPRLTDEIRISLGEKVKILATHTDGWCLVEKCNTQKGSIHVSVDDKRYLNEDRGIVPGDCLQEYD

Lsb4, P32793 = target: T11, Lsb4, P32793; details: median of control spots 397
T11 sequence (P32793 402-468, looked up): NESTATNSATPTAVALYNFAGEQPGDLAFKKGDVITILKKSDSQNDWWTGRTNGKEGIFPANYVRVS

Boi2, P39969 = target: T12, Boi2, P39969; details: median of control spots 1161
T12 sequence (P39969 32-116, looked up): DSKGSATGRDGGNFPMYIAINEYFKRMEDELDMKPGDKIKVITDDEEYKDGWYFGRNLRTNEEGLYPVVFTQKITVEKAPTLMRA

Myo3, P36006 = details: median of control spots 468
Bbc1, P47068 = target: T13, Bbc1, P47068; details: median of control spots 796
T13 sequence (P47068 1-78, looked up): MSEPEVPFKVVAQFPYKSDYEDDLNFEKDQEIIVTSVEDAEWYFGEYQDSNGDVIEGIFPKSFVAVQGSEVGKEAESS

Bzz1-1, P38822 = target: T14, Bzz1-1, P38822; details: median of control spots 4446
T14 sequence (P38822 478-572, looked up): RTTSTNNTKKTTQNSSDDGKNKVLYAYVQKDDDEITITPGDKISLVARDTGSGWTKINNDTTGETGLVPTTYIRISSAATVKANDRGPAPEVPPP

Pex13, P80667 = target: T15, Pex13, P80667; details: median of control spots 1341
T15 sequence (P80667 295-386, looked up): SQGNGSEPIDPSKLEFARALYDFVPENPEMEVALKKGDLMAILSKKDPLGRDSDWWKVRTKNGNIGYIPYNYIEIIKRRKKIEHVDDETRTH

Pin3, Q06449 = target: T16, Pin3, Q06449; details: median of control spots 2171
T16 sequence (Q06449 53-122, looked up): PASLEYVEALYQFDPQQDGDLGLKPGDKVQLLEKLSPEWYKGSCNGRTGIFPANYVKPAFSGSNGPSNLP

Cdc25, P04821 = target: T17, Cdc25, P04821; details: median of control spots 969
T17 sequence (P04821 50-136, looked up): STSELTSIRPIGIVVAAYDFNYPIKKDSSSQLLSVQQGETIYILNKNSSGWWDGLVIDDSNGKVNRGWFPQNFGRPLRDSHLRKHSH

Hof1, Q05080 = target: T18, Hof1, Q05080; details: median of control spots 4086
T18 sequence (Q05080 590-669, looked up): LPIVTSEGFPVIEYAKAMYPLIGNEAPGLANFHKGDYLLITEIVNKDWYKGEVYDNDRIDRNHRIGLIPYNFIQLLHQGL

Sla1-3, P32790 = target: T19, Sla1-3, P32790; details: median of control spots 5475
T19 sequence (P32790 344-424, looked up): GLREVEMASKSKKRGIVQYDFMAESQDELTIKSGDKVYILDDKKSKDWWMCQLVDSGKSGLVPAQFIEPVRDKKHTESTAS

Hse1, P38753 = target: T20, Hse1, P38753; details: median of control spots 1727
T20 sequence (P38753 208-285, looked up): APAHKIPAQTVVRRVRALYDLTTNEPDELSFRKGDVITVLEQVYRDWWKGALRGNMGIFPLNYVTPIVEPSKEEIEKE

Bem1-2, P29366 = details: median of control spots 4347
Bem1-2, P29366, sequence (P29366 139-227): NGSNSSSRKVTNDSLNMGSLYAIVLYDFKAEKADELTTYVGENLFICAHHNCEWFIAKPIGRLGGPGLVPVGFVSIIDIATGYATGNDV

Sla1-2, P32790 = target: T21, Sla1-2, P32790; details: median of control spots 712
T21 sequence (P32790 60-140, looked up): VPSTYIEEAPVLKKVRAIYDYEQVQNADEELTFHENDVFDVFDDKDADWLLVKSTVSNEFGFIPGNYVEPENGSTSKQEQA

TYNRTAFQIPGDQSI
SPOT intensity (Abp1, P15891): 0
SPOT intensity (Bzz1-2, P38822): 0
SPOT intensity (Cyk3, Q07533): 0
SPOT intensity (Boi1, P38041): 1
SPOT intensity (Bud14, P27637): 0
SPOT intensity (Nbp2, Q12163): 0
SPOT intensity (Myo5, Q04439): 1
SPOT intensity (Lsb1, P53281): 705
SPOT intensity (Rvs167, P39743): 0
SPOT intensity (Lsb3, P43603): 0
SPOT intensity (Sho1, P40073): 0
SPOT intensity (GST): 0
SPOT intensity (Bem1-1, P29366): 0
SPOT intensity (Fus1, P11710): 0
SPOT intensity (Lsb4, P32793): 0
SPOT intensity (Boi2, P39969): 0
SPOT intensity (Myo3, P36006): 0
SPOT intensity (Bbc1, P47068): 0
SPOT intensity (Bzz1-1, P38822): 2
SPOT intensity (Pex13, P80667): 0
SPOT intensity (Pin3, Q06449): 45
SPOT intensity (Cdc25, P04821): 0
SPOT intensity (Hof1, Q05080): 0
SPOT intensity (Sla1-3, P32790): 1
SPOT intensity (Hse1, P38753): 0
SPOT intensity (Bem1-2, P29366): 0
SPOT intensity (Sla1-2, P32790): 0

HPRFVSPRIPSRIVK
SPOT intensity (Abp1, P15891): 133
SPOT intensity (Bzz1-2, P38822): 0
SPOT intensity (Cyk3, Q07533): 0
SPOT intensity (Boi1, P38041): 0
SPOT intensity (Bud14, P27637): 0
SPOT intensity (Nbp2, Q12163): 2
SPOT intensity (Myo5, Q04439): 0
SPOT intensity (Lsb1, P53281): 379
SPOT intensity (Rvs167, P39743): 4
SPOT intensity (Lsb3, P43603): 41
SPOT intensity (Sho1, P40073): 40
SPOT intensity (GST): 0
SPOT intensity (Bem1-1, P29366): 0
SPOT intensity (Fus1, P11710): 0
SPOT intensity (Lsb4, P32793): 57
SPOT intensity (Boi2, P39969): 0
SPOT intensity (Myo3, P36006): 3
SPOT intensity (Bbc1, P47068): 226
SPOT intensity (Bzz1-1, P38822): 0
SPOT intensity (Pex13, P80667): 21
SPOT intensity (Pin3, Q06449): 86
SPOT intensity (Cdc25, P04821): 2
SPOT intensity (Hof1, Q05080): 0
SPOT intensity (Sla1-3, P32790): 15
SPOT intensity (Hse1, P38753): 9
SPOT intensity (Bem1-2, P29366): 2
SPOT intensity (Sla1-2, P32790): 0

VKPRQLFPIPLNKVD
SPOT intensity (Abp1, P15891): 10
SPOT intensity (Bzz1-2, P38822): 0
SPOT intensity (Cyk3, Q07533): 0
SPOT intensity (Boi1, P38041): 0
SPOT intensity (Bud14, P27637): 0
SPOT intensity (Nbp2, Q12163): 0
SPOT intensity (Myo5, Q04439): 0
SPOT intensity (Lsb1, P53281): 880
SPOT intensity (Rvs167, P39743): 0
SPOT intensity (Lsb3, P43603): 0
SPOT intensity (Sho1, P40073): 8
SPOT intensity (GST): 0
SPOT intensity (Bem1-1, P29366): 0
SPOT intensity (Fus1, P11710): 0
SPOT intensity (Lsb4, P32793): 0
SPOT intensity (Boi2, P39969): 0
SPOT intensity (Myo3, P36006): 0
SPOT intensity (Bbc1, P47068): 0
SPOT intensity (Bzz1-1, P38822): 1
SPOT intensity (Pex13, P80667): 0
SPOT intensity (Pin3, Q06449): 5
SPOT intensity (Cdc25, P04821): 0
SPOT intensity (Hof1, Q05080): 0
SPOT intensity (Sla1-3, P32790): 0
SPOT intensity (Hse1, P38753): 0
SPOT intensity (Bem1-2, P29366): 0
SPOT intensity (Sla1-2, P32790): 0

DGNEEKPLLPTRPNK
SPOT intensity (Abp1, P15891): 0
SPOT intensity (Bzz1-2, P38822): 0
SPOT intensity (Cyk3, Q07533): 0
SPOT intensity (Boi1, P38041): 0
SPOT intensity (Bud14, P27637): 0
SPOT intensity (Nbp2, Q12163): 0
SPOT intensity (Myo5, Q04439): 0
SPOT intensity (Lsb1, P53281): 174
SPOT intensity (Rvs167, P39743): 263
SPOT intensity (Lsb3, P43603): 493
SPOT intensity (Sho1, P40073): 0
SPOT intensity (GST): 0
SPOT intensity (Bem1-1, P29366): 0
SPOT intensity (Fus1, P11710): 0
SPOT intensity (Lsb4, P32793): 281
SPOT intensity (Boi2, P39969): 0
SPOT intensity (Myo3, P36006): 0
SPOT intensity (Bbc1, P47068): 43
SPOT intensity (Bzz1-1, P38822): 0
SPOT intensity (Pex13, P80667): 81
SPOT intensity (Pin3, Q06449): 0
SPOT intensity (Cdc25, P04821): 0
SPOT intensity (Hof1, Q05080): 23
SPOT intensity (Sla1-3, P32790): 5
SPOT intensity (Hse1, P38753): 1
SPOT intensity (Bem1-2, P29366): 0
SPOT intensity (Sla1-2, P32790): 0
